Measurements taken from patent publication US6506881B1, “Anti-HMFG antibodies and processes for their production” (Celltech R&D Limited, priority 1991, dated 2003).

B1: gL1gH2: CDR-grafted light chain gL1 with CDR-grafted heavy chain gH2, transiently expressed (antibody, V domains shown)
VH: QIQLVQSGAEVKKPGSSVKVSCKASGYTFTDYYINWMRQAPGQGLEWIGWIDPGSGNTKYNEKFKGRATLTVDTSTNTAYMELSSLRSEDTAFYFCAREKTTYYYAMDYWGQGTLVTVSS
VL: DIQMTQSPSTLSASVGDRVTITCRSSKSLLHSNGDTFLYWFQQKPGKAPKLLMYRMSNLASGVPSRFSGSGSGTEFTLTISSLQPDDFATYYCMQHLEYPFTFGQGTKVEVKR
B2: hu1:CTMO1: CDR-grafted humanised CTMO1, gL1 light chain, gH2 heavy chain, human IgG2 constant domains, from NSO cells (antibody, V domains shown)
VH: QIQLVQSGAEVKKPGSSVKVSCKASGYTFTDYYINWMRQAPGQGLEWIGWIDPGSGNTKYNEKFKGRATLTVDTSTNTAYMELSSLRSEDTAFYFCAREKTTYYYAMDYWGQGTLVTVSS
VL: DIQMTQSPSTLSASVGDRVTITCRSSKSLLHSNGDTFLYWFQQKPGKAPKLLMYRMSNLASGVPSRFSGSGSGTEFTLTISSLQPDDFATYYCMQHLEYPFTFGQGTKVEVKR
B3: hu:CTMO1: CDR-grafted humanised CTMO1, gL1 light chain, gH2 heavy chain, altered human IgG4 (IgG4P) constant domains (antibody, V domains shown)
VH: QIQLVQSGAEVKKPGSSVKVSCKASGYTFTDYYINWMRQAPGQGLEWIGWIDPGSGNTKYNEKFKGRATLTVDTSTNTAYMELSSLRSEDTAFYFCAREKTTYYYAMDYWGQGTLVTVSS
VL: DIQMTQSPSTLSASVGDRVTITCRSSKSLLHSNGDTFLYWFQQKPGKAPKLLMYRMSNLASGVPSRFSGSGSGTEFTLTISSLQPDDFATYYCMQHLEYPFTFGQGTKVEVKR
B4: gL1gH1: CDR-grafted light chain gL1 with CDR-grafted heavy chain gH1 (antibody, V domains shown)
VH: QIQLVQSGAEVKKPGSSVKVSCKASGYTFTDYYINWMRQAPGQGLEWMGWIDPGSGNTKYNEKFKGRVTITVDTSTNTAYMELSSLRSEDTAFYFCAREKTTYYYAMDYWGQGTLVTVSS
VL: DIQMTQSPSTLSASVGDRVTITCRSSKSLLHSNGDTFLYWFQQKPGKAPKLLMYRMSNLASGVPSRFSGSGSGTEFTLTISSLQPDDFATYYCMQHLEYPFTFGQGTKVEVKR

Key:
[1] = tested on: polymorphic epithelial mucin (PEM); experiment: Direct binding ELISA on PEM-coated microwell plates, transiently expressed antibodies; parameters: species or system human; details: from all direct binding assays (FIG. 22, 23)
Experimental: Direct binding ELISA assays for determining the binding activity of the transiently expressed antibodies were carried out as follows.
An affinity column was prepared by attaching the CTM01 MAb to a suitable chromatographic medium in conventional manner. In a first method, pooled human urine samples were applied directly to the affinity column. In a second method, human milk was subjected to low speed centrifugation to separate the cream from skimmed milk. The skimmed milk was then subjected to high speed centrifugation to produce an aqueous and a lipid component. The aqueous component was applied to the affinity column.
Once the affinity column was loaded, by either of the two methods, column fractions were eluted at high and low pHs, neutralised and assayed for reactivity with the CTM01 MAb. Fractions showing reactivity were pooled and dialysed.
Microwell plates were coated with PEM obtained as described above. The microwells were then incubated with serial dilutions of culture supernatants.
Direct binding assays were carried out on the culture supernatants produced by the doubly transfected cell lines.

[2] = tested on: MCF-7 breast carcinoma cells; experiment: In vitro cell binding and internalisation of 125I-labelled antibody, MCF-7; type: cell-based; details: MCF-7 cells; 125I-labelled antibody at 2 μg/million cells; continuous exposure
Experimental: (§1) Antibody, purified from the supernatant of each cultured cell line by protein-A sepharose chromatography was radiolabelled (^125I) and incubated using a conventional continuous exposure method with either MX-1 or MCF-7 breast carcinoma cells. Radiolabelled murine CTMO1 was used in all tests as a comparison. All antibodies were incubated at 2 μg/million cells. The total binding of antibodies to the cells and the peak net uptake of the antibodies by the cells was determined.

[3] = tested on: MX-1 breast carcinoma cells; experiment: In vitro cell binding and internalisation of 125I-labelled antibody, MX-1; type: cell-based; details: MX-1 cells; 125I-labelled antibody at 2 μg/million cells; continuous exposure
Experimental: as §1

| Molecule | order of binding activity of antibodies produced by transient expression [1] | Peak Net Uptake (molecules/cell) [2] | Total Binding, 0° (molecules/cell) [2] | Peak Net Uptake (molecules/cell) [3] | Total Binding, 0° (molecules/cell) [3] |
| --- | --- | --- | --- | --- | --- |
| B1 | cLcH3>gL1ch=gL1gH2>cLgH2=gL2H2=gL1gH1=gL2cH>gL2gH1 | – | – | – | – |
| B2 | – | 150,000 molecules/cell | 650,000 molecules/cell | 150,000 molecules/cell | 1,200,000 molecules/cell |
| B3 | – | 90,000 molecules/cell | 450,000 molecules/cell | 150,000 molecules/cell | 1,100,000 molecules/cell |
| B4 | cLcH3>gL1ch=gL1gH2>cLgH2=gL2H2=gL1gH1=gL2cH>gL2gH1 | – | – | – | – |
